From patent US20110136737A1

T1: GIP receptor (GIP RBA, RIN), P43219
T1 chain: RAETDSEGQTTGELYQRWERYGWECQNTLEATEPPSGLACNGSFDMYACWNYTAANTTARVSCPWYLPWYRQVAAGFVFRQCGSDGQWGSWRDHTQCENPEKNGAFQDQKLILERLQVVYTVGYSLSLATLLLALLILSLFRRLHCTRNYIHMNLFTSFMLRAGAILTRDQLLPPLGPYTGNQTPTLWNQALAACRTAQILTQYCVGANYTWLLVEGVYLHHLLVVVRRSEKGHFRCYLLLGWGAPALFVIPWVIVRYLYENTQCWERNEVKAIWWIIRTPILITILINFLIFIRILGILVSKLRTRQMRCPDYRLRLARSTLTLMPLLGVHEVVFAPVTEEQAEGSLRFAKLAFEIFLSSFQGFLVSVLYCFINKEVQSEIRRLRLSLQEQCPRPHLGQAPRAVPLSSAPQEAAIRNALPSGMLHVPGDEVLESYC

T2: human GIP receptor (human), P48546
T2 chain: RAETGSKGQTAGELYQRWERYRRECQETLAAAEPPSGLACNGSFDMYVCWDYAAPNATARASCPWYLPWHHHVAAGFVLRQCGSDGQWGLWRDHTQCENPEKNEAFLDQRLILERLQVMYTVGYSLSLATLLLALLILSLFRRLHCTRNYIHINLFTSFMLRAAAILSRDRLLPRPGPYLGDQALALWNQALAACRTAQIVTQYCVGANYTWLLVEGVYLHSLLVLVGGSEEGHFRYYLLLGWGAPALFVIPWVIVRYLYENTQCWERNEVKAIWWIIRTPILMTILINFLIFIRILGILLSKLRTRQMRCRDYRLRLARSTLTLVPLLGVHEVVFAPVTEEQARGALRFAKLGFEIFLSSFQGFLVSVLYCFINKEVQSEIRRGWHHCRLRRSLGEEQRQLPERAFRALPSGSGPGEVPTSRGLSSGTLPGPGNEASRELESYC


Molecular target: T1, GIP receptor (GIP RBA, RIN), P43219
Experiment: cell-based or functional assay

First: GYAEGTFISDYSIAMDKIHQQDFVNWLLAQKPSSGAPPPS (modifications not checked) [0601GIP4178]
Second: GYAEGTFISDYSIAMDKIRQQDFVNWLLAQKPSSGAPPPS (modifications not checked) [0601GIP4293]
The Cyclase of the first is higher: 36.2 for the first, 20 for the second.

Molecular target: T1, GIP receptor (GIP RBA, RIN), P43219
Experiment: cell-based or functional assay
Remark: another data set of the same source

Compared with GYAEGTFISDYSIAMDKIHQQDFVNWLLAQKPSSGAPPPS (modifications not checked) [0601GIP4178], YAEGTFISEYSIAMDKIHQQDFVNWLLAQKPSSGAPPPS (modifications not checked) [0601GIP4151] is higher in Cyclase: 96 for the first, 10000 for the second.

YAEGTFISDYSIAMDKIHQQDFVNWLLAQAPSSGAPPPS (modifications not checked) [0601GIP4165] gave a Cyclase of 40.

Molecular target: T2, human GIP receptor (human), P48546
Experiment: 125I-GIP displacement by 10 nM analog, HEK-GIPR membranes

First: YAEGTFISDYSIAMDKIHQQDFVNWLLAQKPSKEIIH (modifications not checked) [0601GIP4710]
Second: YAEGTFISDYSIAMDKIHQQDFVNWLLAQKPSKEIIS (modifications not checked) [0601GIP4765]
The % Inh at 10 nM of the first is higher: 79.2% for the first, 67% for the second.

Going from YAEGTFISDYSIAMDKIHQQDFVNWLLAQKPSPKKIRYS (modifications not checked) [0601GIP4823] to LYAEGTFISDYSIAMDKIHQQDFVNWLLAQKPKKIRYS (modifications not checked) [0601GIP4798], the % Inh at 10 nM falls from 94.1% to 82.3%.

Going from LYAEGTFISDYSIALDKIAQQEFVNWLLAQKPKKIRYS (modifications not checked) [0601GIP4803] to LYAEGTFISDYSIALDKIAQQEFVNWLLAQKPKKIRYS (modifications not checked) [0601GIP4802], the % Inh at 10 nM falls from 89.9% to 87.3%.

Compared with IYAEGTFISDYSIAMDKIHQQDFVNWLLAQKPKKIRYS (modifications not checked) [0601GIP4801], YAEGTFISDYSIALDKIHQQDFVNWLLAQKPKKIRYS (modifications not checked) [0601GIP4807] is higher in % Inh at 10 nM: 88.8% for the first, 96.1% for the second.

Going from HGEGTFISDYSIAMDKIHQQDFVNWLLAQKPKKIRYS (modifications not checked) [0601GIP4839] to YADGTFISDYSIAMDKIHQQDFVNWLLAQKPKKIRYS (modifications not checked) [0601GIP4390], the % Inh at 10 nM rises from 23.9% to 90.3%.

First: YAEGTFISDYSIALDKIRQQDFVEWLLAQKPKKIRYS (modifications not checked) [0601GIP4540]
Second: HGEGTFISDYSIALDKIAQQEFVNWLLAQKPKKIRYS (modifications not checked) [0601GIP4841]
The % Inh at 10 nM of the first is higher: 92.2% for the first, 56.6% for the second.

Compared with YAEGTFISDYSIAMDKIHQQDFVNWLLAQKPKKIRYA (modifications not checked) [0601GIP4819], YAEGTFISDYSIAMDKIHQQDFVNELLAQKPKKIRYS (modifications not checked) [0601GIP4769] is lower in % Inh at 10 nM: 80.4% for the first, 42.8% for the second.

First: YAEGTFISDYSIAMDKIHQQDFVNWLLAQKPKKIRYS (modifications not checked) [0601GIP4762]
Second: YAEGTFISDYSIALDKIRQQEFVNWLLAQKPKKIRYS (modifications not checked) [0601GIP4539]
The % Inh at 10 nM of the first is lower: 79.1% for the first, 98.7% for the second.

Going from YAEGTFISDYSIAMDKIHQQDFVNWLEAQKPKKIRYS (modifications not checked) [0601GIP4771] to YAEGTFISDYSIAMDKIHQQDFVPWLLAQKPKKIRYS (modifications not checked) [0601GIP4768], the % Inh at 10 nM rises from 17.8% to 17.9%.

Going from YAEGTFISDYSIAMDKIHQQDFVNWLLAQKPKKIRYS (modifications not checked) [0601GIP4233] to YAEGTFISDYSIAMDKIHQQDFVNPLLAQKPKKIRYS (modifications not checked) [0601GIP4770], the % Inh at 10 nM falls from 89% to 10.8%.

Going from YSEGTFISDYSIAMDKIHQQDFVNWLLAQKPKKIRYS (modifications not checked) [0601GIP4538] to YAEGTFISDYSIAMDKIHQQDFVNWLLAQKPKKLKPS (modifications not checked) [0601GIP4822], the % Inh at 10 nM rises from 94.2% to 95.4%.

Compared with YAEGTFISDYSIAMDKIHQQDFVNWLLAQKPKAIRYS (modifications not checked) [0601GIP4816], YAEGTFISDYSIAMDKIHQQDFVNWLLAQKPKSARPS (modifications not checked) [0601GIP4821] is higher in % Inh at 10 nM: 87.3% for the first, 93.5% for the second.

First: YAEGTFISDYSIAMDKIHQQDFVNWLLAQKPAKIRYS (modifications not checked) [0601GIP4815]
Second: HAEGTFISDYSIAMDKIHQQDFVNWLLAQKPKKIRYS (modifications not checked) [0601GIP4840]
The % Inh at 10 nM of the first is higher: 89% for the first, 44.1% for the second.

Going from YAEGTFISDYSIAMDKIHQQDFVNWLLAQKAKKIRYS (modifications not checked) [0601GIP4814] to YAEGTFISDYSIALDKIAQQEFVNWLLAQKPKKIRYS (modifications not checked) [0601GIP4631], the % Inh at 10 nM falls from 88% to 79%.

Going from HGEGTFISDYSIALDKIRQQEFVNWLLAQKPKKIRYS (modifications not checked) [0601GIP4842] to YSDGTFISDYSIAMDKIHQQDFVNWLLAQKPKKIRYS (modifications not checked) [0601GIP4386], the % Inh at 10 nM rises from 40.8% to 93.6%.

Compared with YAEGTFISDYSIAMDKIHQQDFVNWLLAQKPKGKGKS (modifications not checked) [0601GIP4700], YAEGFISDYSIAMDKIHQQDFVNWLLAQKPSPKKIRYS (modifications not checked) [0601GIP4820] is lower in % Inh at 10 nM: 86.6% for the first, 46% for the second.

Binder YAEGTFISDYSIAMDKIHQQDFVNWLLAQKGFVLWKGIQ (modifications not checked) [0601GIP4619] has a % Inh at 10 nM of 84.6%.
